# Experimental data as given in doi:10.1101/2025.06.24.661325, “Structural and functional analysis of the Mycobacterium tuberculosis MmpS5L5 efflux pump presages a pathway to increased bedaquiline resistance” (bioRxiv, 2025).
# B1: M. tuberculosis MmpS5 (natural protein)
# chain: MIGTLKRAWIPLLILVVVAIAGFTVQRIRTFFGSEGILVTPKVFADDPEPFDPKVVEYEVSGSGSYVNINYLDLDAKPQRIDGAALPWSLTLKTTAPSAAPNILAQGDGTSITCRITVDGEVKDERTATGVDALTYCFVKSA
# B2: M. smegmatis acyl carrier protein AcpM (MSMEG_4326) (natural protein)
# chain: MAATQEEIIAGLAEIIEEVTGIEPSEVTPEKSFVDDLDIDSLSMVEIAVQTEDKYGVKIPDEDLAGLRTVGDVVAYIQKLEEENPEAAAALREKFAADQ
# Tests used:
# [1] = molecular target: T1, M. tuberculosis MmpL5 Δ494-688 with C-terminal GFP-FLAG tag (M. tuberculosis, UniProt P9WJV1 1-964, Δ494-688); test: co-purification (anti-FLAG affinity, then SEC); conditions: partners not purified
# T1 construct: also called MmpL5ΔCC; MmpL5 ΔCC
# [2] = molecular target: T1, M. tuberculosis MmpL5 Δ494-688 with …; test: cryo-EM structure; conditions: both partners purified
Binder,binding result [1],binding result [2]
B1,binds,–
B2,–,binds
